Data on 39 variants can be found in the RNAGym collection of RNA variant scans (doi:10.7554/elife.90254).

B1: LINE1-full (parent)
chain: UACGUAGGUGGUUUUCCCCUGAUAGUGCUAAGGGGGCCUGGAAGUUUGGACUGGGCAGAGCUCAACACAGCGUGGCAAAGUGGCUGUGGCUAGACUGCCUCUCUGGAUUCCUCGUCACUCAGCAGGGCAUCUCUGAGAGAAAUGCC

The variants in this series derive from B1. The series is described as follows: self-cleavage, relative activity (ratio to wild type); higher = more cleavage; in vitro, sequencing; the parent is a self-cleaving ribozyme.
Regarding UACGUAGGUGGUUUUCCCCUGAUAGUGCUAAGGGGGCCUGGAAGUUUGGACUGGGCAGAGCUCAACACAGCGUGGAAAAGUGGCUGUGGCUAGACUGCCUCUCUGGAUUCCUCGUCACUCAGCAGGGCAUCUCUGAGAGAGAUGCC, the self-cleavage stood at 2.26.

Regarding UACGUAGGUGGUUUUCCCCUGAUAGUGCUAAGGGGGCCUGGAAGUUUGGACUGGGCAGAGCUCAACACAGCGUGUCAAAGCGGCUGUGGCUAGACUGCCUCUCUGGAUUCCUCGUCACUCAGCAGGGCAUCUCUGAGAGAAAUGCC, the self-cleavage came to 0.83. The value for UACGUAGGUGGUUUUCCCCUGAUAGUGCUAAGGGGGCCUGGAAGUUUGGACUGGGCAGAGCUCAACACAGCGUGCCAAAGUGGCUGUGGCUAGACUGCCUCUCUGGACUCCUCGUCACUCAGCAGGGCAUCUCUGAGAGAAAUGCC was 0.77. Consider UACGUAGGUGGUUUUCCCCUGAUAGUGCUAAGGGGGCCUGGAAGUUUGGACUGGGCAGAGCUCAACACAGCGUGGAAGAGUGGCUGUGGCUAGACUGCCUCUCUGGAUUCCUCGUCACUCAGCAGGGCAUCUCUGAGAGAAAUGCC, for which the self-cleavage is 1.68. On to UACGUAGGUGGUUUUCCCCUGAUAGUGCUAAGGGGGCCUGGAAGUUUGGACUGGGCAGAGCUCAACACAGCGUGCCUAAGUGGCUGUGGCUAGACUGCCUCUCUGGAUUCCUCGUCACUCAGCAGGGCAUCUCUGAGAGAAAUGCC, for which the self-cleavage is 0.75. The value for UACGUAGGUGGUUUUCCCCUGAUAGUGCUAAGGGGGCCUGGAAGUUUGGACUGGGCAGAGCUCAACACAGCGUGCCGAAGUGGCUGUGGCUAGACUGCCUCUCUGGAUUCCUCGUCACUCAGCAGGGCAUCUCUGAGAGAAAUGCC was 0.8. The same measure for UACGUAGGUGGUUUUCCCCUGAUAGUGCUAAGGGGGCCUGGAAGUUUGGACUGGGCAGAGCUCAACACAGCGUGGUAAAGUGGCUGUGGCUAGACUGCCUCUCUGGAUUCCUCGUCACUCAGCAGGGCGUCUCUGAGAGAAAUGCC: 2.87; for UACGUAGGUGGUUUUCCCCUGAUAGUGCUAAGGGGGCCUGGAAGUUUGGACUGGGCAGAGCUCAACACAGCGUGGUAAAGUGGCUGUGGCUAGACUGCCUCUCUGGAUUCCUCGUCACUCAGCAGGGCAUCUCUGGGAGAAAUGCC: 1.75.

UACGUAGGUGGUUUUCCCCUGAUAGUGCUAAGGGGGCCUGGAAGUUUGGACUGGGCAGAGCUCAACACAGCGUGGUAAAGUGGCUGUGGCUAGACUGCCUCUCUGGAUUCCUCGUCACUCAGCAGGGCAUCUCUGAGAGAAGUGCC: the self-cleavage came out at 2.37. The value for UACGUAGGUGGUUUUCCCCUGAUAGUGCUAAGGGGGCCUGGAAGUUUGGACUGGGCAGAGCUCAACACAGCGUGUCAAAGUGGCUGUGGCUAGACUGCCUCUCUGGAUUCCUCGUCACUCAGCAGGGCAUCUCUGAGAGAAAUGCC was 0.62; that for UACGUAGGUGGUUUUCCCCUGAUAGUGCUAAGGGGGCCUGGAAGUUUGGACUGGGCAGAGCUCAACACAGCGUGCCAAAGUGGCUGUGGCUAGACUGCCUCUCUGGAUUCCUCGUCACUCAGCAGGGCAUCUCUGAGAGAAAUGCC was 0.6; that for UACGUAGGUGGUUUUCCCCUGAUAGUGCUAAGGGGGCCUGGAAGUUUGGACUGGGCAGAGCUCAACACAGCGUGUCAAAGUGGCUGUGGUUAGACUGCCUCUCUGGAUUCCUCGUCACUCAGCAGGGCAUCUCUGAGAGAAAUGCC was 0.03. The same measure for UACGUAGGUGGUUUUCCCCUGAUAGUGCUAAGGGGGCCUGGAAGUUUGGACUGGGCAGAGCUCAACACAGCGUGGUAAAGUGGCUGUGGCUAGACUGUCUCUCUGGAUUCCUCGUCACUCAGCAGGGCAUCUCUGAGAGAAAUGCC: 0.61; for UACGUAGGUGGUUUUCCCCUGAUAGUGCUAAGGGGGCCUGGAAGUUUGGACUGGGCAGAGCUCAACACAGCGUGGUAAAGUGGCUGUGGCUAGACUGCCUCUCUGGAUUCCUCGUCUCUCAGCAGGGCAUCUCUGAGAGAAAUGCC: 2.41; for UACGUAGGUGGUUUUCCCCUGAUAGUGCUAAGGGGGCCUGGAAGUUUGGACUGGGCAGAGCUCAACACAGCGUGUCAAAGUGGCUGUGGCUAGACUGCCUCUCUGGAUUCCUCGUCACUCAGCAGGGCAUCUCUGAGAAAAAUGCC: 0.89. The value for UACGUAGGUGGUUUUCCCCUGAUAGUGCUAAGGGGGCCUGGAAGUUUGGACUGGGCAGAGCUCAACACAGCGUGCCAAAGUGGCUGUGGCUAGACUGCCUCUCUGGAUUCCUCGUCACUCAGCAGGGCAUCUCCGAGAGAAAUGCC was 0.58.

On to UACGUAGGUGGUUUUCCCCUGAUAGUGCUAAGGGGGCCUGGAAGUUUGGACUGGGCAGAGCUCAACACAGCGUGGUAAGGUGGCUGUGGCUAGACUGCCUCUCUGGAUUCCUCGUCACUCAGCAGGGCAUCUCUGAGAGAAAUGCC, for which the self-cleavage was 2.1. The same measure for UACGUAGGUGGUUUUCCCCUGAUAGUGCUAAGGGGGCCUGGAAGUUUGGACUGGGCAGAGCUCAACACAGCGUGGAAAAGUGGCUGUGGCUAGACUGCCUCUCUGGAUUCCUCGUCACUCAGCAGGGCAUCCCUGAGAGAAAUGCC: 2.08. In the case of UACGUAGGUGGUUUUCCCCUGAUAGUGCUAAGGGGGCCUGGAAGUUUGGACUGGGCAGAGCUCAACACAGCGUGGAAAAGUGGCUGUGGCUAGACUGCCUCUCUGGAUUCCUCGUCACUCAGCAGGGCAUCUCUGAGAGAAGUGCC, the self-cleavage was determined as 1.87. The same measure for UACGUAGGUGGUUUUCCCCUGAUAGUGCUAAGGGGGCCUGGAAGUUUGGACUGGGCAGAGCUCAACACAGCGUGGUAAAGUGGCUGUGGCUAGACUGCCUCUCUGGAUUCCUCGUCACUCAGCAGGGCAUCUCUGAGAGAAAUGCC: 2.18; for UACGUAGGUGGUUUUCCCCUGAUAGUGCUAAGGGGGCCUGGAAGUUUGGACUGGGCAGAGCUCAACACAGCGUGGGAAAGUGGCUGUGGCUAGACUGCCUCUCUGGAUUCCUCGUCACUCAGCAGGGCAUCUCUGAGAGAAAUGCC: 2.01; for UACGUAGGUGGUUUUCCCCUGAUAGUGCUAAGGGGGCCUGGAAGUUUGGACUGGGCAGAGCUCAACACAGCGUGGAAAAGUGGCUGUGGCUAGACUGCCUCUCUGGAUUCCUCGUCACUCAGCAGGGCAUCUCUGAGAGAAAUGCC: 1.71.

On to UACGUAGGUGGUUUUCCCCUGAUAGUGCUAAGGGGGCCUGGAAGUUUGGACUGGGCAGAGCUCAACACAGCGUGGAAAAGUGGCUGCGGCUAGACUGCCUCUCUGGAUUCCUCGUCACUCAGCAGGGCAUCUCUGAGAGAAAUGCC, for which the self-cleavage came out at 0.38. The same measure for UACGUAGGUGGUUUUCCCCUGAUAGUGCUAAGGGGGCCUGGAAGUUUGGACUGGGCAGAGCUCAACACAGCGUGGAAAAGUGGCUGGGGCUAGACUGCCUCUCUGGAUUCCUCGUCACUCAGCAGGGCAUCUCUGAGAGAAAUGCC: 0.11; for UACGUAGGUGGUUUUCCCCUGAUAGUGCUAAGGGGGCCUGGAAGUUUGGACUGGGCAGAGCUCAACACAGCGUGACAAAGUGGCUGUGGCUAGACUGCCUCUCUGGAUUCCUCGUCACUCAGCAGGGCAUCUCAGAGAGAAAUGCC: 1. The same measure for UACGUAGGUGGUUUUCCCCUGAUAGUGCUAAGGGGGCCUGGAAGUUUGGACUGGGCAGAGCUCAACACAGCGUGCCAAAGUGGCUGUGGCUAGACUGCCUCUCUGGAUUCCUCGUCACUCAGCAGGGCAUCUCUGAGAGAAGUGCC: 0.85. The same measure for UACGUAGGUGGUUUUCCCCUGAUAGUGCUAAGGGGGCCUGGAAGUUUGGACUGGGCAGAGCUCAACACAGCGUGGUAAAGUGGCUGUGGCUAGACUGCCUCUCUGGAUUCCUCGUCACUCAGCAGGGCAUCUCUGAGAGAGAUGCC: 1.18; for UACGUAGGUGGUUUUCCCCUGAUAGUGCUAAGGGGGCCUGGAAGUUUGGACUGGGCAGAGCUCAACACAGCGUGGUAAAGUGGCUGUGGCUAGACUGCCUCUCUGGAUUCCUCGUCACUCAGCAGGGCAUCUCUGAGAGACAUGCC: 1.29; for UACGUAGGUGGUUUUCCCCUGAUAGUGCUAAGGGGGCCUGGAAGUUUGGACUGGGCAGAGCUCAACACAGCGUGUCAAAGUGGCUGUGGCUAGACUGCCUCUCUGGAUUCCUCGUCACUCAGCAGGGCAUCUCUGAGAGAAUUGCC: 0.84. Consider UACGUAGGUGGUUUUCCCCUGAUAGUGCUAAGGGGGCCUGGAAGUUUGGACUGGGCAGAGCUCAACACAGCGUGGUUAAGUGGCUGUGGCUAGACUGCCUCUCUGGAUUCCUCGUCACUCAGCAGGGCAUCUCUGAGAGAAAUGCC, for which the self-cleavage was determined as 2.05. The value for UACGUAGGUGGUUUUCCCCUGAUAGUGCUAAGGGGGCCUGGAAGUUUGGACUGGGCAGAGCUCAACACAGCGUGGAAAAGUGGCUGUGGCUAGACUGCCUCUCUGUAUUCCUCGUCACUCAGCAGGGCAUCUCUGAGAGAAAUGCC was 1.2. The same measure for UACGUAGGUGGUUUUCCCCUGAUAGUGCUAAGGGGGCCUGGAAGUUUGGACUGGGCAGAGCUCAACACAGCGUGGUAAAGUGGCUGUGGCUGGACUGCCUCUCUGGAUUCCUCGUCACUCAGCAGGGCAUCUCUGAGAGAAAUGCC: 0.06. Take UACGUAGGUGGUUUUCCCCUGAUAGUGCUAAGGGGGCCUGGAAGUUUGGACUGGGCAGAGCUCAACACAGCGUGUCAAAGUGGCUGUGGCUAGACUGCCUCUCCGGAUUCCUCGUCACUCAGCAGGGCAUCUCUGAGAGAAAUGCC: the self-cleavage stood at 1.32. The same measure for UACGUAGGUGGUUUUCCCCUGAUAGUGCUAAGGGGGCCUGGAAGUUUGGACUGGGCAGAGCUCAACACAGCGUGGAAAAGUGGCUGUGGCUAGACUGCCUCCCUGGAUUCCUCGUCACUCAGCAGGGCAUCUCUGAGAGAAAUGCC: 1.39; for UACGUAGGUGGUUUUCCCCUGAUAGUGCUAAGGGGGCCUGGAAGUUUGGACUGGGCAGAGCUCAACACAGCGUGGAAAAGUGGCUGUGGCUAGACUGCCUCUCUGGAUUCCUCGUCACUCAGCAGGGCAUCUCUGGGAGAAAUGCC: 1.79. The same measure for UACGUAGGUGGUUUUCCCCUGAUAGUGCUAAGGGGGCCUGGAAGUUUGGACUGGGCAGAGCUCAACACAGCGUGGAAAAGUGGCUGUGGCUAGACUGCCUCUCUGGAUUCCUCGUCACUCAGCAGGGCAUCUCAGAGAGAAAUGCC: 0.84; for UACGUAGGUGGUUUUCCCCUGAUAGUGCUAAGGGGGCCUGGAAGUUUGGACUGGGCAGAGCUCAACACAGCGUGGUAAAGUGGCUGUGGCUAGCCUGCCUCUCUGGAUUCCUCGUCACUCAGCAGGGCAUCUCUGAGAGAAAUGCC: 0.11. The same measure for UACGUAGGUGGUUUUCCCCUGAUAGUGCUAAGGGGGCCUGGAAGUUUGGACUGGGCAGAGCUCAACACAGCGUGUCAAAGUGGCCGUGGCUAGACUGCCUCUCUGGAUUCCUCGUCACUCAGCAGGGCAUCUCUGAGAGAAAUGCC: 0.07. Turning to UACGUAGGUGGUUUUCCCCUGAUAGUGCUAAGGGGGCCUGGAAGUUUGGACUGGGCAGAGCUCAACACAGCGUGGUAAAGUGGCUGUGGCUAGACUGCCUCUCUGGGUUCCUCGUCACUCAGCAGGGCAUCUCUGAGAGAAAUGCC, the self-cleavage was found to be 2.53.
